Assay [1] has as its target human transferrin receptor (TfR) (human) (UniProt P02786). The experiment in a line: FACS on DU145 cells, percent of cells above the fluorescence threshold.
For assay [2] the target is unchanged. Briefly: FACS on JSQ-3 cells, percent of cells above the fluorescence threshold.
Assay [3] shares this target. The experiment in a line: indirect cellular ELISA on fixed JSQ-3 cells; highest concentration of Hb21 (100 µl), positive control. A general note: An ELISA detects its analyte on a solid surface through an enzyme-linked reagent.
Assay [4] shares this target. Briefly: indirect cellular ELISA on fixed JSQ-3 cells, anti-His detection.
The target is the same in assay [5]. The experiment in a line: indirect cellular ELISA on fixed JSQ-3 cells, anti-His detection; 3 µg of protein.
Assay [6] has the same target. Briefly: indirect cellular ELISA on fixed JSQ-3 cells, anti-His detection; 0.6 µg of protein.
Assay [7] shares this target. Briefly: indirect cellular ELISA on fixed JSQ-3 cells, anti-His detection; 1.5 µg of protein.

Chain of human transferrin receptor (TfR) (human) (P02786 whole entry): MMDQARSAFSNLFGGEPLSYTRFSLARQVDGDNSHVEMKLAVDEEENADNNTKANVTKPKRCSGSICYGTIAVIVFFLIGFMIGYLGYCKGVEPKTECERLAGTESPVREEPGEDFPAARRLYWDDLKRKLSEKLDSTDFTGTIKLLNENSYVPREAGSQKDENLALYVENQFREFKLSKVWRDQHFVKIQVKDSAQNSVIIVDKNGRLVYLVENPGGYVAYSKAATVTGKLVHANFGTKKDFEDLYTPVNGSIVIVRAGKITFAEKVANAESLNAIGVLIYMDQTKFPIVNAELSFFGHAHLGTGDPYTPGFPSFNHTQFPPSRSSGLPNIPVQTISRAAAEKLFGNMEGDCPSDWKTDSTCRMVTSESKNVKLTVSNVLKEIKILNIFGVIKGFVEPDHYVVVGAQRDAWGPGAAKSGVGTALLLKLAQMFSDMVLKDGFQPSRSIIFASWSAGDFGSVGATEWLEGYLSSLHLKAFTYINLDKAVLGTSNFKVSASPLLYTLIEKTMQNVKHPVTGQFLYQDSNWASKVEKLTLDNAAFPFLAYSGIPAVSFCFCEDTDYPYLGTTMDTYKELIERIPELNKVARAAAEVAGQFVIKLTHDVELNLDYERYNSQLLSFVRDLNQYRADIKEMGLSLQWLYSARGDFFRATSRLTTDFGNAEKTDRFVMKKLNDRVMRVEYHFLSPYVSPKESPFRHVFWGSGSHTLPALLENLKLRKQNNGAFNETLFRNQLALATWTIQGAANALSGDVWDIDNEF

Consider “HB21 anti-transferrin receptor monoclonal antibody”, for which the % Positive in assay [1] amounted to 98.7%; in assay [2], 99.4%. Further, the OD490 in assay [3] stood at 0.033 OD490.
As for “TfRscFv containing a C-terminal cysteine, with a His tag”, the OD490 worked out at 0.235 OD490 in assay [4], 0.132 OD490 in assay [5], 0.06 OD490 in assay [6] and 0.1 OD490 in assay [7].
